How the values were obtained:
mABCA1 promoter = test: NHR-promoter luciferase screen, mABCA1 promoter; format: cell-based, mouse; conditions: for Luc. act., normalized to lacZ / Normalized Luc. act., normalized to control: ABCA1 promoter, hormone receptor with or without its ligand; for Normalized Luc. act., normalized to control: relative to control; for mABCA1 promoter reporter activity: transcription factor +/- ligand, control = 1.00
Summary of the method: (§1)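 CV-1 cells were co-transfected with 50 ng NHR (homodimer or NHR/RXR heterodimer), 100 ng promoter-luciferase construct and 50 ng LacZ. Luciferase was normalized to LacZ and to a no-NHR/no-ligand control.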

hPOMC promoter = test: NHR-promoter luciferase screen, hPOMC promoter; format: cell-based, human; conditions: for Luc. act., normalized to lacZ / Normalized Luc. act., normalized to control: hPOMC promoter, HR/ligand component; for hPOMC promoter reporter activity: transcription factor +/- ligand, control = 1.00
Summary of the method: as §1

hCAR promoter = test: NHR-promoter luciferase screen, hCAR promoter; format: cell-based, human; conditions: for luciferase activity normalized to lacZ activity and to a control, hCAR: hCAR promoter-luciferase, CV-1 cells, NHR +/- ligand, control = 1.00; for Luc. act., normalized to lacZ / Normalized Luc. act., normalized to control: hCAR promoter, HR/ligand component
Summary of the method: as §1

mCAR promoter = test: NHR-promoter luciferase screen, mCAR promoter; format: cell-based, mouse; conditions: for luciferase activity normalized to lacZ activity and to a control, mCAR: mCAR promoter-luciferase, CV-1 cells, NHR +/- ligand, control = 1.00; for Luc. act., normalized to lacZ / Normalized Luc. act., normalized to control: mCAR promoter, HR/ligand component
Summary of the method: as §1

mPOMC promoter = test: NHR-promoter luciferase screen, mPOMC promoter; format: cell-based, mouse; conditions: for Results of assays of transcription factor (+/- ligand) with mPOMC: Table 6d, luciferase activity relative to control (control = 1.00); for Luc. act., normalized to lacZ / Normalized Luc. act., normalized to control: mPOMC promoter, HR component with or without ligand; for Normalized Luc. act., normalized to control: relative to control
Summary of the method: as §1

mDio1 promoter = test: NHR-promoter luciferase screen, mDio1 promoter; format: cell-based, mouse; conditions: for Luc. act., normalized to lacZ / Normalized Luc. act., normalized to control: Dio1, HR component without or with its ligand; for mDio1 promoter reporter activity: transcription factor +/- ligand, control = 1.00
Summary of the method: as §1

Molecule	Luc. act., normalized to lacZ (mABCA1 promoter)	Normalized Luc. act., normalized to control (mABCA1 promoter)	mABCA1 promoter reporter activity (mABCA1 promoter)	Luc. act., normalized to lacZ (hPOMC promoter)	Normalized Luc. act., normalized to control (hPOMC promoter)	hPOMC promoter reporter activity (hPOMC promoter)	luciferase activity normalized to lacZ activity and to a control, hCAR (hCAR promoter)	Luc. act., normalized to lacZ (hCAR promoter)	Normalized Luc. act., normalized to control (hCAR promoter)	luciferase activity normalized to lacZ activity and to a control, mCAR (mCAR promoter)	Luc. act., normalized to lacZ (mCAR promoter)	Normalized Luc. act., normalized to control (mCAR promoter)	Results of assays of transcription factor (+/- ligand) with mPOMC (mPOMC promoter)	Luc. act., normalized to lacZ (mPOMC promoter)	Normalized Luc. act., normalized to control (mPOMC promoter)	Luc. act., normalized to lacZ (mDio1 promoter)	Normalized Luc. act., normalized to control (mDio1 promoter)	mDio1 promoter reporter activity (mDio1 promoter)
NR4a2: NR4a2 (NR4A2; NURR1), nuclear hormone receptor cDNA driver (protein, UniProt P43354 1-598, looked up) Nuclear receptor subfamily 4 …: MPCVQAQYGSSPQGASPASQSYSYHSSGEYSSDFLTPEFVKFSMDLTNTEITATTSLPSFSTFMDNYSTGYDVKPPCLYQMPLSGQQSSIKVEDIQMHNYQQHSHLPPQSEEMMPHSGSVYYKPSSPPTPTTPGFQVQHSPMWDDPGSLHNFHQNYVATTHMIEQRKTPVSRLSLFSFKQSPPGTPVSSCQMRFDGPLHVPMNPEPAGSHHVVDGQTFAVPNPIRKPASMGFPGLQIGHASQLLDTQVPSPPSRGSPSNEGLCAVCGDNAACQHYGVRTCEGCKGFFKRTVQKNAKYVCLANKNCPVDKRRRNRCQYCRFQKCLAVGMVKEVVRTDSLKGRRGRLPSKPKSPQEPSPPSPPVSLISALVRAHVDSNPAMTSLDYSRFQANPDYQMSGDDTQHIQQFYDLLTGSMEIIRGWAEKIPGFADLPKADQDLLFESAFLELFVLRLAYRSNPVEGKLIFCNGVVLHRLQCVRGFGEWIDSIVEFSSNLQNMNIDISAFSCIAALAMVTERHGLKEPKRVEELQNKIVNCLKDHVTFNNGGLNRPNYLSKLLGKLPELRTLCTQGLQRIFYLKLEDLVPPPAIIDKLFLDTLPF	6.2	1.1	1.11	2.1	0.5	0.49	0.58	18.4	0.6	0.57	21.74	0.6	1.05	72.2	1.0	6.3	1.4	1.41
PR: Progesterone Receptor (NR3C3), cDNA driver (protein, UniProt P06401 1-933, looked up) Progesterone receptor: MTELKAKGPRAPHVAGGPPSPEVGSPLLCRPAAGPFPGSQTSDTLPEVSAIPISLDGLLFPRPCQGQDPSDEKTQDQQSLSDVEGAYSRAEATRGAGGSSSSPPEKDSGLLDSVLDTLLAPSGPGQSQPSPPACEVTSSWCLFGPELPEDPPAAPATQRVLSPLMSRSGCKVGDSSGTAAAHKVLPRGLSPARQLLLPASESPHWSGAPVKPSPQAAAVEVEEEDGSESEESAGPLLKGKPRALGGAAAGGGAAAVPPGAAAGGVALVPKEDSRFSAPRVALVEQDAPMAPGRSPLATTVMDFIHVPILPLNHALLAARTRQLLEDESYDGGAGAASAFAPPRSSPCASSTPVAVGDFPDCAYPPDAEPKDDAYPLYSDFQPPALKIKEEEEGAEASARSPRSYLVAGANPAAFPDFPLGPPPPLPPRATPSRPGEAAVTAAPASASVSSASSSGSTLECILYKAEGAPPQQGPFAPPPCKAPGASGCLLPRDGLPSTSASAAAAGAAPALYPALGLNGLPQLGYQAAVLKEGLPQVYPPYLNYLRPDSEASQSPQYSFESLPQKICLICGDEASGCHYGVLTCGSCKVFFKRAMEGQHNYLCAGRNDCIVDKIRRKNCPACRLRKCCQAGMVLGGRKFKKFNKVRVVRALDAVALPQPVGVPNESQALSQRFTFSPGQDIQLIPPLINLLMSIEPDVIYAGHDNTKPDTSSSLLTSLNQLGERQLLSVVKWSKSLPGFRNLHIDDQITLIQYSWMSLMVFGLGWRSYKHVSGQMLYFAPDLILNEQRMKESSFYSLCLTMWQIPQEFVKLQVSQEEFLCMKVLLLLNTIPLEGLRSQTQFEEMRSSYIRELIKAIGLRQKGVVSSSQRFYQLTKLLDNLHDLVKQLHLYCLNTFIQSRALSVEFPEMMSEVIAAQLPKILAGMVKPLLFHKK	8.9	1.6	1.58	3.2	0.7	0.75	1.00	31.5	1.0	0.98	37.53	1.0	1.10	75.8	1.1	7.8	1.8	1.75
hMR: Mineralocorticoid Receptor (NR3C2, MR), cDNA driver (protein, UniProt P08235 1-984, looked up) Mineralocorticoid receptor: METKGYHSLPEGLDMERRWGQVSQAVERSSLGPTERTDENNYMEIVNVSCVSGAIPNNSTQGSSKEKQELLPCLQQDNNRPGILTSDIKTELESKELSATVAESMGLYMDSVRDADYSYEQQNQQGSMSPAKIYQNVEQLVKFYKGNGHRPSTLSCVNTPLRSFMSDSGSSVNGGVMRAVVKSPIMCHEKSPSVCSPLNMTSSVCSPAGINSVSSTTASFGSFPVHSPITQGTPLTCSPNVENRGSRSHSPAHASNVGSPLSSPLSSMKSSISSPPSHCSVKSPVSSPNNVTLRSSVSSPANINNSRCSVSSPSNTNNRSTLSSPAASTVGSICSPVNNAFSYTASGTSAGSSTLRDVVPSPDTQEKGAQEVPFPKTEEVESAISNGVTGQLNIVQYIKPEPDGAFSSSCLGGNSKINSDSSFSVPIKQESTKHSCSGTSFKGNPTVNPFPFMDGSYFSFMDDKDYYSLSGILGPPVPGFDGNCEGSGFPVGIKQEPDDGSYYPEASIPSSAIVGVNSGGQSFHYRIGAQGTISLSRSARDQSFQHLSSFPPVNTLVESWKSHGDLSSRRSDGYPVLEYIPENVSSSTLRSVSTGSSRPSKICLVCGDEASGCHYGVVTCGSCKVFFKRAVEGQHNYLCAGRNDCIIDKIRRKNCPACRLQKCLQAGMNLGARKSKKLGKLKGIHEEQPQQQQPPPPPPPPQSPEEGTTYIAPAKEPSVNTALVPQLSTISRALTPSPVMVLENIEPEIVYAGYDSSKPDTAENLLSTLNRLAGKQMIQVVKWAKVLPGFKNLPLEDQITLIQYSWMCLSSFALSWRSYKHTNSQFLYFAPDLVFNEEKMHQSAMYELCQGMHQISLQFVRLQLTFEEYTIMKVLLLLSTIPKDGLKSQAAFEEMRTNYIKELRKMVTKCPNNSGQSWQRFYQLTKLLDSMHDLVSDLLEFCFYTFRESHALKVEFPAMLVEIISDQLPKVESGNAKPLYFHRK	6.8	1.2	1.21		0.0	0.00	0.81	25.6	0.8	0.77	29.38	0.8	0.73	50.3	0.7	2.4	0.5	0.55
NR4a3: NR4a3 (NR4A3; NOR1), nuclear hormone receptor cDNA driver (protein, UniProt Q92570 1-626, looked up) Nuclear receptor subfamily 4 …: MPCVQAQYSPSPPGSSYAAQTYSSEYTTEIMNPDYTKLTMDLGSTEITATATTSLPSISTFVEGYSSNYELKPSCVYQMQRPLIKVEEGRAPSYHHHHHHHHHHHHHHQQQHQQPSIPPASSPEDEVLPSTSMYFKQSPPSTPTTPAFPPQAGALWDEALPSAPGCIAPGPLLDPPMKAVPTVAGARFPLFHFKPSPPHPPAPSPAGGHHLGYDPTAAAALSLPLGAAAAAGSQAAALESHPYGLPLAKRAAPLAFPPLGLTPSPTASSLLGESPSLPSPPSRSSSSGEGTCAVCGDNAACQHYGVRTCEGCKGFFKRTVQKNAKYVCLANKNCPVDKRRRNRCQYCRFQKCLSVGMVKEVVRTDSLKGRRGRLPSKPKSPLQQEPSQPSPPSPPICMMNALVRALTDSTPRDLDYSRYCPTDQAAAGTDAEHVQQFYNLLTASIDVSRSWAEKIPGFTDLPKEDQTLLIESAFLELFVLRLSIRSNTAEDKFVFCNGLVLHRLQCLRGFGEWLDSIKDFSLNLQSLNLDIQALACLSALSMITERHGLKEPKRVEELCNKITSSLKDHQSKGQALEPTESKVLGALVELRKICTLGLQRIFYLKLEDLVSPPSIIDKLFLDTLPF	6.8	1.2	1.21	2.7	0.6	0.63	0.54	16.9	0.5	0.57	21.58	0.6	0.87	59.7	0.9	6.6	1.5	1.48

Reference: patent publication US20110263454A1, “Methods of Identifying Functional Characteristics of Promoters, Transcription Modifying Proteins and Transcription Modulating Agents” (Salk Institute for Biological Studies, priority 2008, published 2011)
